Results: paper doi:10.1101/2020.04.16.045526

B1: HapR BS 1 probe (32 bp) (dsDNA)
DNA 1: TAGGTTTGTTAGTGTTTACTTACTTATTTGGC
DNA 2: GCCAAATAAGTAAGTAAACACTAACAAACCTA
modifications: Cy5-dCTP added to the 3' end of one strand by TdT (strand not stated)
B2: HapR BS 2 probe (32 bp) (dsDNA)
DNA 1: AATTGCAATTGATAAATTTCTTGGCTAGGTGT
DNA 2: ACACCTAGCCAAGAAATTTATCAATTGCAATT
modifications: Cy5-dCTP added to the 3' end of one strand by TdT (strand not stated)

Molecular target: HapR (Vibrio cholerae E7946 (El Tor), UniProt Q4F6W7 1-203)
Experiment: EMSA

Binder | binding result
B1 | binds
B2 | binds
